# Data as given in US6492344B1, “Syndecan enhancer element and syndecan stimulation of cellular differentiation” (Biotie Therapies Corp., priority 1993, dated 2002).
# Columns and labels:
# [1] = system: nuclear factors binding FiRE motifs 1-5; type: cell-based, mouse
# Protocol: The Enhancer Comprises Five DNA Binding Motifs. Plasmid pFiRE was end-labeled using Klenow fragment and […]. DNAse I footprinting was performed with labeled pFiRE vector alone (naked), together with FGF-induced nuclear extracts (FGF-2), and together with non-induced nuclear extracts (control). To obtain nuclear extracts, NIH3T3 cells were plated on 16 cm dishes and treated with or without FGF-2 for 1 day. Nuclear proteins were extracted using a modification described by Lee et al., Gene Anal. Techn. 5:22-31 (1988). Protein concentrations were measured by the Bradford method.
# In a 12 μl reaction, 5 μg of the nuclear extracts were incubated with labeled oligonucleotide, 2 μg of poly-d[I-C] and 2×reaction buffer, i.e., […], pH 7.5; 100 mM NaCl; 2 mM EDTA; and 10% glycerol for 15 minutes at room temperature. Non-labeled competitor oligonucleotides were used at 100-fold molar excess. The complexes were analyzed by electrophoresis in a 4.5% polyacrylamide gel. For supershifts, 0.1 μg of specific antibody was added to the reaction 15 minutes before the labeled oligonucleotide. […]
# These motifs was further analyzed by competing the binding of nuclear factors with a molar excess of specific (s) and non-specific (ns) oligonucleotides. […] The resulting complexes were analyzed by the gel retardation analysis described above. […]
# [2] = system: syndecan-1 expression in 3T3 cells; assay: Quantitation of cell surface syndecan in 3T3 cells exposed to growth factors; type: cell-based, mouse; settings: FGF-2 administered alone
# Protocol: Growth factors enhance syndecan expression. NMuMG mouse mammary epithelial cells and 3T3 (NIH) mouse fibroblasts were routinely cultured in bicarbonate-buffered Dulbecco's modified Eagle's medium (DMEM; GIBCO) containing 10% FCS (GIBCO) and antibiotics, as previously described (Elenius et al., J. Biol. Chem. 265:17837-17843 (1990)). For experiments, cells were plated at equal density on culture dishes (Nunc) and grown to 60-70% confluency. Twenty-four hours before supplementing the medium with growth factor(s), the medium on the cells was replaced with fresh medium containing 2% CMS-FCS (Vogel et al., Proc. Natl. Acad. Sci. USA 75:2810-2814 (1978)). Equally treated cultures without growth factor addition served as negative controls. […] For quantitation and isolation of cell surface syndecan, media were discarded at time points indicated in the text and the cell layers were washed twice with ice cold phosphate buffered saline (PBS). […] After subsequent washes by resuspension and centrifugation the cell numbers were measured by counting the nuclei with a Coulter Counter (Coulter Electronics).
# For quantitation of syndecan intercalated into the cell membrane, syndecan ectodomain was released by incubating washed cells in 20 μg/ml bovine pancreatic trypsin (Type III; Sigma) in PBS for 10 min on ice bath. […]
substance,measurement,setting,value
FGF-2: Basic fibroblast growth factor (FGF-2 or bFGF); recombinant human,nuclear protein binding to motifs 1 and 2,[1],do not show binding to an FGF-2 inducible factor
same,"nuclear protein binding to motifs 3, 4 and 5",[1],bind at least one specific FGF-2 inducible nuclear protein
same,syndecan-1 expression,[2],shows enhancement of syndecan-1 expression
